In patent US20210292423A1 (published 2021):

B1: 5A5-B4 anti-CD123 rat IgG (hybridoma supernatant) (antibody, V domains shown)
VH: QIQIVQSGSDVTSTCNGCGTCYFSGFSLSTTGICVSWIRQPSGKGQEWLADFCWDDGKGYNPSLKNRLSISKDTSNNQVFLKITSVDTADTATYYCARRRVYYGIYFDYWGQGVMVTVSS
VL: DIVMTQSPALAVSPGERVSISCRASNSVSTRMHWYQQKPGQQPKLLIYGASNLESGVPARFSGSGSGTDFTLTIDPVEADDIATYFCQQSWNDPLTFGSGTKLEIK
notes: rat IgG; also called BFX - 5A5
B2: 3E3-D3 anti-CD123 rat IgG (hybridoma supernatant) (antibody, V domains shown)
VH: QVQLQESGPGLVQPSQTLSLTCTVSGFSLTTYDVHWVRQPPGKGLEWMGRIQNGGITDYNSALKSRLIISRDTSKSQVFLKMNSVQTEDTAMYFCAKTGSYFYAFDHWGQGTLVTVSS
VL: QFVLTQPNSVSTNLGSTVKLSCKRNTGNIGSNYVNWYQQHEGRSPTTMIYRDDKRPDGVPDRFSGSIDRSSNSALLTINNVQTEDEADYFCQSYSSGINIIFGGGTKLTVL
notes: rat IgG; also called BFX - 3E3
B3: 6C10-C4 anti-CD123 rat IgG (hybridoma supernatant) (antibody, V domains shown)
VH: EVKLQESGPSLVQPSETLSLTCTVSGFSLTSYSVHWVRQHSGKSLEWMGRMWNDGDTSYNSAFTSRLSISRDTSKGQVFLKMNSLQTEDTGTYYCARGHRTPFDYWGQGVMVTVSS
VL: DIVMTQSPSSLAVSAGETVTINCKSSQSFLSSGDERNYVAWYQHKPGQSPKLLIYWASTRHSGVPDRFIGSGSGTDFTLTISSVQAEDLAIYYCQQYYDTPLTFGSGTKLEIK
notes: rat IgG; also called BFX - 6C10
B4: 9B8-G6 anti-CD123 rat IgG (hybridoma supernatant) (antibody, V domains shown)
VH: EVKLQESGPSLVQSSQTLSLTCTVSGFSLTSYHIHWVRQPPGKGLEWMGVMWSDGDTSYSSALKSRLSISRDTSQSQVFLKMNSLQTEDTATYYCARGDYSSYIYLWFAYWGQGTLVTVSS
VL: DIVMTQSPSSLAVSAGETVTINCKSSQSFLSSGDERNYVAWYQHKPGQSPKLLIYWASTRHSGVPDRFIGSGSGTDFTLTISSVQAEDLAIYYCQQYYDTPLTFGSGTKLEIK
notes: rat IgG; also called BFX - 9B8
B5: 9D7-C8 anti-CD123 rat IgG (hybridoma supernatant) (antibody, V domains shown)
VH: EVKLQESGPSLVQSSQTLSLTCTVSGFSLTSYHIHWVRQTPGKGLEWMGVMWSDGDTSYNSALKSRLSISRDTSQSQVFLKMNSLQTEDTATYYCARGYYSSYLYLWFAYWGQGTLVTVSS
VL: DIVMTQSPSSLAVSEGETVTINCKSSQSFLSSGDGKNYVAWYQYKPGQSPKLLIYWASTRQSGVPDRFIGSGSGTDFTLTISTVQAEDLAIYYCQQYYDTPLTFGSGTKLEIK
notes: rat IgG; also called BFX - 9D7
B6: 8B11-B7 anti-CD123 rat IgG (hybridoma supernatant) (antibody, V domains shown)
VH: QVQLQESGPTLVNPGDSVKMSCKASGYTFTDHIIHWVKQSHGKSLEWIGYINPYSGGANYNGKFKSKATLTIDKSSSTAYMEFSRLTSGDSAIYYCALNYGSYYAMDAWGQGTSVTVSS
VL: DIQMTQSPASLSASLGETVTIECRTSKDIYSNLAWFQQEPGNSPQLLIYDASNLADGVPSRFSGSGSGTQYSLQINNLQSEDVASYFCHQYNNYPYTFGTGTKLELK
notes: rat IgG; also called BFX - 8B11
B7: 9F6-G3 anti-CD123 rat IgG (hybridoma supernatant) (antibody, V domains shown)
VH: QVQLQESGPTLVKPGDSVKMSCKASGYTFTDYIIHWVKQSHGKSLEWIGYINPYSDGTNYNEKFKSKATLTVDKSTSTAYMEFSRLTSEDSAIYFCALNYGSYYAMDAWGQGTSVTVSS
VL: DIQMTQSPASLSASLGETVTIECRPSEDIHSNVAWYQQKPGNSPQLLIYDASNLADGVPSRFSGSGSGTQYSLKINSLQSEDVASYFCHQYNIYPYTFGSGTKLELK
notes: rat IgG; also called BFX - 9F6
B8: 6B10-E4 anti-CD123 rat IgG (hybridoma supernatant) (antibody, V domains shown)
VH: EVQLVESGGGLVQPGRSLKLSCAASGFTFSHYNMAWVRQAPKKGLEWVATITYDDHSTYYRDSVKGRFTISRDTAKSTLYLQMDSLRSEDTATYYCARLVNYAFAYWGQGTLVTVSS
VL: NIVMTQSPKSMSISVGDRVTMNCKASQTVGNNIAWYQQKPGLSPQLLIDYASNRYTGVPNRFTGGGYGTDFILTINSVQAEDAAFYYCQRMYNSPTFGGGTKLELK
notes: rat IgG; also called BFX - 6B10

Tests used:
[1] = target: T1, Macaca fascicularis CD123 Fc-fusion protein (Macaca fascicularis); test: SPR Proteon XPR36, rat IgG captured, CD123-Fc analyte
T1 construct: also called cyno CD123-Fc
Experimental: (§1) Screening of anti-CD123 rat IgGs for binding affinities to human CD123 and cross-reactivities to cyno CD123 was performed with hybridoma supernatants using a Proteon XPR36 (Biorad) in a one-shot kinetics approach. A capture assay was established using a goat anti-rat IgG (112-005-071, Jackson Immuno Research). The capture antibody was coated on GLC chips (176-5011, Biorad) to approx. 8000 RU in the vertical direction using the amine coupling kit (176-2410, Biorad). […] Binding kinetics with human and cyno CD123-Fc fusion protein was measured at 100 μl/min in the horizontal direction with 120 sec. and 600 sec. for association and dissociation, respectively. The CD123-Fc proteins were used in twofold dilutions from 6 nM to 100 nM. PBSET buffer (176-2730, Biorad) was used as assay buffer. Regeneration was achieved by injection of 10 mM Glycine buffer pH 1.5 for 18 sec at 30 μl/min. Data processing and analysis was performed using ProteonManager software v3.0. Fitting of the sensorgrams was done with a 1:1 Langmuir model.

[2] = target: T2, human CD123 Strep-II tagged Fc-fusion protein (human); test: as above
T2 construct: also called human CD123-Fc; recombinant CD123
Experimental: as §1

[3] = target: T3, human CD123 (IL3RA) on cells (human, UniProt P26951 19-378); test: flow cytometry, CD123 transfected HEK293, hybridoma supernatant
T3 construct: also called CD123 transfected HEK293; THP-1
Experimental: Cells were resuspended in 200 μl Stain Buffer with FBS per well and were measured using the MACSQuant (Miltenyi Biotec) or LSRII (BD) flow cytometer. Further data analyses were performed using the FlowJo software (Tree Star, Inc.). Read out was percentage of cells positive for antibody binding. Cells treated only with the secondary but no primary antibody were used to set the gates. Curves were calculated by XLfit (Algorithm 205).

T2 sequence (chain, as listed by the source limits assumed): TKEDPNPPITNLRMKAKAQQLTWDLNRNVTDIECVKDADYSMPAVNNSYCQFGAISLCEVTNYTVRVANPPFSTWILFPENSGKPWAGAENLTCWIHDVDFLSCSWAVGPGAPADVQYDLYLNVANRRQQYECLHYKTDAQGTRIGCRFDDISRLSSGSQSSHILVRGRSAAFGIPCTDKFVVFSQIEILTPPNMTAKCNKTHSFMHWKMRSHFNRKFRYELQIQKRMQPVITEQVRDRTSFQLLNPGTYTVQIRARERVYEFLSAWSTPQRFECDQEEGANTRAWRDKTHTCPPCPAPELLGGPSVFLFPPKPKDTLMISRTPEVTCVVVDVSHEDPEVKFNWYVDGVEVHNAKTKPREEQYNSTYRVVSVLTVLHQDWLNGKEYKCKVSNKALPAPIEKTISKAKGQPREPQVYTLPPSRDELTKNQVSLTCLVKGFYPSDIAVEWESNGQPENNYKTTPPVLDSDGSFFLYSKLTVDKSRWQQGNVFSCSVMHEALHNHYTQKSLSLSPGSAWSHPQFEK
T1 sequence (chain, as listed by the source limits assumed): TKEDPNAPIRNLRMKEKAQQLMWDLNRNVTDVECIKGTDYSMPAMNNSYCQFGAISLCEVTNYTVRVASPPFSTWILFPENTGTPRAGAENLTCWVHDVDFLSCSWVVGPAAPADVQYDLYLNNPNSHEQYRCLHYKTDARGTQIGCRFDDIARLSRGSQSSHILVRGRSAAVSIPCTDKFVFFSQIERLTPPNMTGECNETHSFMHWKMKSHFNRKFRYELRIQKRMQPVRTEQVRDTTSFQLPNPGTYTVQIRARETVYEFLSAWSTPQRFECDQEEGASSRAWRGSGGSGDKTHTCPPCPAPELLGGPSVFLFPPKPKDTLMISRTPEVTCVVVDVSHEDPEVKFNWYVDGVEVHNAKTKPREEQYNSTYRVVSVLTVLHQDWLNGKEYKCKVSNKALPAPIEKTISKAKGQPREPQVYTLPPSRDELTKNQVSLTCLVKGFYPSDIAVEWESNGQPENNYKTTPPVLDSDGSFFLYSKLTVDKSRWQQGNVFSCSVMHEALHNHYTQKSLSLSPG
T3 sequence (P26951 19-378): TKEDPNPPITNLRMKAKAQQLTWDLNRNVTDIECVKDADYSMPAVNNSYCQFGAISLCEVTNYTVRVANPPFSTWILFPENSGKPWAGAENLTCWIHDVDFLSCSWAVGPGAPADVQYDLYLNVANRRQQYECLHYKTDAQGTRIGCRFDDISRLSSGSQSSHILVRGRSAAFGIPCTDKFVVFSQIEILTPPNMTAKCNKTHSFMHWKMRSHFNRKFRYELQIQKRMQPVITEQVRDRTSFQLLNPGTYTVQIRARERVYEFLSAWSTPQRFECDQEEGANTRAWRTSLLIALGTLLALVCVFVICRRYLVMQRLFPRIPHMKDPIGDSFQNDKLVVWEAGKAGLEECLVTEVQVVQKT

Binder | Kd [1] [nM] | Kd [2] [nM] | koff [2] [s⁻¹] | kon [2] [M⁻¹ s⁻¹] | EC50 [3] [ng/mL]
B1 | 0.05 | 1.1 | 0.00012 | 130000 | 10.1
B2 | 0.12 | 0.4 | 6.4e-05 | 160000 | 2
B3 | 0.79 | 0.75 | 0.00014 | 180000 | 6.1
B4 | 0.17 | 0.19 | 0.00028 | 1.5e+06 | 1.2
B5 | 0.07 | 0.3 | 0.00032 | 1e+06 | 0.9
B6 | 0.1 | 0.01 | 6.2e-06 | 470000 | 0.4
B7 | 0.5 | 0.04 | 6.7e-06 | 180000 | 1.3
B8 | 0.1 | 0.15 | 1.5e-05 | 230000 | 5
